Laboratory results reported in publication PMC2275077 (Nucleic Acids Research, 2008).

Target: T1, TAP-tagged HMO1 (S. cerevisiae, UniProt Q03973 1-246)
T1 sequence: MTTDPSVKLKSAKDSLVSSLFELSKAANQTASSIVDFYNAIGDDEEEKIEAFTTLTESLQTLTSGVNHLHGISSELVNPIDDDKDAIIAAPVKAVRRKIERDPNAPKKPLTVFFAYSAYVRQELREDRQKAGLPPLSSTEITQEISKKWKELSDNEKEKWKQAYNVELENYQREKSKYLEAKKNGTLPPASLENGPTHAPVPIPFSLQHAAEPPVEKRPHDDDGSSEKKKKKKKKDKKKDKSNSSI
Assay: TAP purification with immunoblot

Binder	percent recovered with HMO1-TAP
TAF11 (natural protein) MTEPQGPLDTIPKVNYPPILTIANYFSTKQMIDQVISEDQDYVTWKLQNLRTGGTSINNQLNKYPKYKYQKTRINQQDPDSINKVPENLIFPQDILQQQTQNSNYEDTNTNEDENEKLAQDEQFKLLVTNLDKDQTNRFEVFHRTSLNKTQVKKLASTVANQTISENIRVFLQAVGKIYAGEIIELAMIVKNKWLTSQMCIEFDKRTKIGYKLKKYLKKLTFSIIENQQYKQDYQSDSVPEDEPDFYFDDEEVDKRETTLGNSLLQSKSLQQSDHNSQDLKLQLIEQYNKLVLQFNKLDVSIEKYNNSPLLPEHIREAWRLYRLQSDTLPNAYWRTQGEGQGSMFR	~0.01%
TAF1 (natural protein) MVKQQGSGKTNLANEDEAYEAIFGGEFGSLEIGSYIGGDEGANSKDYTEHLPDAVDFEDEDELADDDDDLPEESDANLHPAMMTMGAYDDVNENGAVLGIDSNSLNMQLPEINGDLSQQFILEDDGGTPATSNALFMGMDANEIHLATETGVLDGSGANEIGHSQLSIGGVNGNDMSINGGFIMEPDMSDGKHKKATKLDLINHEKYLLKKYFPDFEKGKILKWNKLIYRRSVPYHWHSEISRVKKPFMPLNLKFKVQQDDKRLFNSRTISYVAPIYQGKNNLLQSNSSASRRGLIHVSIDELFPIKEQQKKRKIIHDEKTISEDLLIATDDWDQEKIINQGTSSTATLADSSMTPNLKFSGGYKLKSLIEDVAEDWQWDEDMIIDAKLKESKHAELNMNDEKLLLMIEKTNNLAQQKQQLDSSNLILPLNETILQQKFNLSNDDKYQILKKTHQTKVRSTISNLNIQHSQPAINLQSPFYKVAVPRYQLRHFHRENFGSHIRPGTKIVFSKLKARKRKRDKGKDVKESFSTSQDLTIGDTAPVYLMEYSEQTPVALSKFGMANKLINYYRKANEQDTLRPKLPVGETHVLGVQDKSPFWNFGFVEPGHIVPTLYNNMIRAPVFKHDISGTDFLLTKSSGFGISNRFYLRNINHLFTVGQTFPVEEIPGPNSRKVTSMKATRLKMIIYRILNHNHSKAISIDPIAKHFPDQDYGQNRQKVKEFMKYQRDGPEKGLWRLKDDEKLLDNEAVKSLITPEQISQVESMSQGLQFQEDNEAYNFDSKLKSLEENLLPWNITKNFINSTQMRAMIQIHGVGDPTGCGEGFSFLKTSMKGGFVKSGSPSSNNNSSNKKGTNTHSYNVAQQQKAYDEEIAKTWYTHTKSLSISNPFEEMTNPDEINQTNKHVKTDRDDKKILKIVRKKRDENGIIQRQTIFIRDPRVIQGYIKIKEQDKEDVNKLLEEDTSKINNLEELEKQKKLLQLELANLEKSQQRRAARQNSKRNGGATRTENSVDNGSDLAGVTDGKAARNKGKNTTRRCATCGQIGHIRTNKSCPMYSSKDNPASPK	~0.01%
